Reference: US20040018971A1 (published 2004)

Assays:
HLA-A*1101 = HLA-A*1101 (human); assay: inhibition of 125I-labelled probe peptide binding to purified HLA-A*1101, gel filtration
HLA-DR3 (DRB1*0301) = molecular target: T1, HLA-DR3 (DRB1*0301) (human); assay: competition binding assay, purified HLA, 125I-labelled probe peptide, gel filtration
T1 construct: purified HLA class II molecule

HLA-A*0101 = molecular target: T2, HLA-A*0101 (human); assay: competition with 125I-labelled probe peptide for purified HLA-A*0101, gel filtration; relative to standard peptide
T2 construct: also called HLA-A1

HLA-B*0702 [1] = molecular target: HLA-B*0702 (human); assay: competition with 125I probe peptide, purified HLA
HLA-B*0702 [2] = molecular target: HLA-B*0702 (human); assay: competition vs 125I-labeled standard peptide, purified HLA
HLA-B*5401 = HLA-B*5401 (human); assay: as above

ESMPNPEGR [HER2/neu peptide, position 280, 9 amino acids]
relative binding ratio (IC50 of standard peptide / IC50 of test peptide) (HLA-A*1101): -0.0002 relative binding ratio

VHTVPWDQLFRNPHQ (also called Her2/neu.477) [HER2/neu peptide VHTVPWDQLFRNPHQ (position 477)]
relative binding ratio (HLA-DR3 (DRB1*0301)): 0.022 ratio to standard peptide

KGPLPTDCCHEQCAA (also called Her2/neu.228) [HER2/neu peptide KGPLPTDCCHEQCAA (position 228)]
relative binding ratio (HLA-DR3 (DRB1*0301)): -0.0027 ratio to standard peptide

LGSGAFGTVY [HER2/neu peptide, position 726, 10 amino acids]
relative binding ratio (IC50 of standard peptide / IC50 of test peptide) (HLA-A*0101): 0.001 relative binding ratio

B1: Her2/neu.336 (peptide)
peptide: KPCARVCYGL
notes: native HER2/neu peptide from position 336
IC50 (HLA-B*0702 [1]): 149 nM

GDLVDAEEYLVPQQG (also called Her2/neu.1015) [HER2/neu peptide GDLVDAEEYLVPQQG (position 1015)]
relative binding ratio (HLA-DR3 (DRB1*0301)): 0.025 ratio to standard peptide

SLAFLPESFDGDPAS (also called Her2/neu.373) [HER2/neu peptide SLAFLPESFDGDPAS (position 373)]
relative binding ratio (HLA-DR3 (DRB1*0301)): -0.0027 ratio to standard peptide

ELHCPALVTY [HER2/neu peptide, position 265, 10 amino acids]
relative binding ratio (IC50 of standard peptide / IC50 of test peptide) (HLA-A*1101): 0.0002 relative binding ratio

ETEYHADGGKVPIKW (also called Her2/neu.874) [HER2/neu peptide ETEYHADGGKVPIKW (position 874)]
relative binding ratio (HLA-DR3 (DRB1*0301)): -0.0027 ratio to standard peptide

FVVIQNEDLGPASPL (also called Her2/neu.986) [HER2/neu peptide FVVIQNEDLGPASPL (position 986)]
relative binding ratio (HLA-DR3 (DRB1*0301)): -0.0025 ratio to standard peptide

SPGGLRELQL [Her2/neu.133 (10-mer)]
IC50 (HLA-B*0702 [1]): 95 nM

LVTYNTDTFESMPNP (also called Her2/neu.271) [HER2/neu peptide LVTYNTDTFESMPNP (position 271)]
relative binding ratio (HLA-DR3 (DRB1*0301)): -0.0027 ratio to standard peptide

PSGVKPDLSY [HER2/neu peptide, position 601, 10 amino acids]
relative binding ratio (IC50 of standard peptide / IC50 of test peptide) (HLA-A*0101): 0.001 relative binding ratio

FSPAFDNLY [HER2/neu peptide, position 1213, 9 amino acids, listing 1 of 2 here]
relative binding ratio (IC50 of standard peptide / IC50 of test peptide) (HLA-A*1101): 0.0002 relative binding ratio

GLACHQLCAR [HER2/neu peptide, position 508, 10 amino acids]
relative binding ratio (IC50 of standard peptide / IC50 of test peptide) (HLA-A*1101): 0.0001 relative binding ratio

TVPLPSETDGYVAPL (also called Her2/neu.1117) [HER2/neu peptide TVPLPSETDGYVAPL (position 1117)]
relative binding ratio (HLA-DR3 (DRB1*0301)): -0.0025 ratio to standard peptide

FSRMARDPQR [HER2/neu peptide, position 976, 10 amino acids]
relative binding ratio (IC50 of standard peptide / IC50 of test peptide) (HLA-A*1101): 0.001 relative binding ratio

SGAFGTVY [HER2/neu peptide, position 728, 8 amino acids]
relative binding ratio (IC50 of standard peptide / IC50 of test peptide) (HLA-A*0101): -0.0021 relative binding ratio

DTILWKDIFHKNNQL (also called Her2/neu.165) [HER2/neu peptide DTILWKDIFHKNNQL (position 165)]
relative binding ratio (HLA-DR3 (DRB1*0301)): -0.0027 ratio to standard peptide

GLGISWLGLR [HER2/neu peptide, position 447, 10 amino acids]
relative binding ratio (IC50 of standard peptide / IC50 of test peptide) (HLA-A*1101): 0.0001 relative binding ratio

ETEYHADGGK [HER2/neu peptide, position 874, 10 amino acids]
relative binding ratio (IC50 of standard peptide / IC50 of test peptide) (HLA-A*1101): 0.0001 relative binding ratio

LQDIQEVQGY [HER2/neu peptide, position 74, 10 amino acids]
relative binding ratio (IC50 of standard peptide / IC50 of test peptide) (HLA-A*0101): 0.0015 relative binding ratio

DNLYYWDQDPPERGA (also called Her2/neu.1218) [HER2/neu peptide DNLYYWDQDPPERGA (position 1218)]
relative binding ratio (HLA-DR3 (DRB1*0301)): -0.0025 ratio to standard peptide

SDVFDGDLGMGAAKG (also called Her2/neu.1083) [HER2/neu peptide SDVFDGDLGMGAAKG (position 1083)]
relative binding ratio (HLA-DR3 (DRB1*0301)): -0.0025 ratio to standard peptide

B2: Her2/neu.649, 10-mer (peptide)
peptide: SPLTSIISAV
notes: 10-mer native HER2/neu peptide starting at position 649
IC50 (HLA-B*0702 [2]): 61 nM
IC50 (HLA-B*5401): 667 nM

GGAVENPEY [HER2/neu peptide, position 1188, 9 amino acids]
relative binding ratio (IC50 of standard peptide / IC50 of test peptide) (HLA-A*1101): 0.0001 relative binding ratio

MGDLVDAEEY [HER2/neu peptide, position 1014, 10 amino acids]
relative binding ratio (IC50 of standard peptide / IC50 of test peptide) (HLA-A*0101): 0.012 relative binding ratio

B3: Her2/neu.642 (peptide)
peptide: CPAEQRASPL
notes: native HER2/neu peptide from position 642
IC50 (HLA-B*0702 [1]): 37 nM

YNYLSTDVGSCTLVC (also called Her2/neu.301) [HER2/neu peptide YNYLSTDVGSCTLVC (position 301)]
relative binding ratio (HLA-DR3 (DRB1*0301)): 0.0059 ratio to standard peptide

ELMTFGAKPY [HER2/neu peptide, position 914, 10 amino acids]
relative binding ratio (IC50 of standard peptide / IC50 of test peptide) (HLA-A*1101): 0.0002 relative binding ratio

KCSKPCARVCY [HER2/neu peptide, position 333, 11 amino acids]
relative binding ratio (IC50 of standard peptide / IC50 of test peptide) (HLA-A*0101): -0.0017 relative binding ratio

SLSFLQDIQEVQGYV (also called Her2/neu.70) [HER2/neu peptide SLSFLQDIQEVQGYV (position 70)]
relative binding ratio (HLA-DR3 (DRB1*0301)): 0.052 ratio to standard peptide

GASCVTACPY [HER2/neu peptide, position 292, 10 amino acids, listing 1 of 2 here]
relative binding ratio (IC50 of standard peptide / IC50 of test peptide) (HLA-A*1101): 0.0001 relative binding ratio

PSGVKPDLSYMPIWK (also called Her2/neu.601) [HER2/neu peptide PSGVKPDLSYMPIWK (position 601)]
relative binding ratio (HLA-DR3 (DRB1*0301)): -0.0027 ratio to standard peptide

EVTAEDGTQR [HER2/neu peptide, position 321, 10 amino acids]
relative binding ratio (IC50 of standard peptide / IC50 of test peptide) (HLA-A*1101): 0.0001 relative binding ratio

LEEITGYLY [HER2/neu peptide, position 403, 9 amino acids]
relative binding ratio (IC50 of standard peptide / IC50 of test peptide) (HLA-A*0101): 0.0057 relative binding ratio

YRSLLEDDDMGDLVD (also called Her2/neu.1005) [HER2/neu peptide YRSLLEDDDMGDLVD (position 1005)]
relative binding ratio (HLA-DR3 (DRB1*0301)): 0.063 ratio to standard peptide

PTAENPEY [HER2/neu peptide, position 1241, 8 amino acids]
relative binding ratio (IC50 of standard peptide / IC50 of test peptide) (HLA-A*0101): 0.003 relative binding ratio

RSLLEDDDMGDLVDA (also called Her2/neu.1006) [HER2/neu peptide RSLLEDDDMGDLVDA (position 1006)]
relative binding ratio (HLA-DR3 (DRB1*0301)): 0.008 ratio to standard peptide

KNGVVKDVFAFGGAV (also called Her2/neu.1177) [HER2/neu peptide KNGVVKDVFAFGGAV (position 1177)]
relative binding ratio (HLA-DR3 (DRB1*0301)): -0.0025 ratio to standard peptide

FGASCVTACPY [HER2/neu peptide, position 291, 11 amino acids]
relative binding ratio (IC50 of standard peptide / IC50 of test peptide) (HLA-A*0101): 0.01 relative binding ratio

VTCFGPEADQCVACA (also called Her2/neu.574) [HER2/neu peptide VTCFGPEADQCVACA (position 574)]
relative binding ratio (HLA-DR3 (DRB1*0301)): -0.0027 ratio to standard peptide

NKEILDEAYVMAGVG (also called Her2/neu.764) [HER2/neu peptide NKEILDEAYVMAGVG (position 764)]
relative binding ratio (HLA-DR3 (DRB1*0301)): 0.0047 ratio to standard peptide

MRRLLQETELVEPLT (also called Her2/neu.687) [HER2/neu peptide MRRLLQETELVEPLT (position 687)]
relative binding ratio (HLA-DR3 (DRB1*0301)): -0.0027 ratio to standard peptide

TAPLQPEQLQVFETL (also called Her2/neu.389) [HER2/neu peptide TAPLQPEQLQVFETL (position 389)]
relative binding ratio (HLA-DR3 (DRB1*0301)): 0.0023 ratio to standard peptide

GAMPNQAQMR [HER2/neu peptide, position 704, 10 amino acids]
relative binding ratio (IC50 of standard peptide / IC50 of test peptide) (HLA-A*1101): 0.0041 relative binding ratio

PTHDPSPLQRY (H is used here) [HER2/neu peptide, position 1102, 11 amino acids]
relative binding ratio (IC50 of standard peptide / IC50 of test peptide) (HLA-A*0101): 0.016 relative binding ratio

FSPAFDNLY [HER2/neu peptide, position 1213, 9 amino acids, listing 2 of 2 here]
relative binding ratio (IC50 of standard peptide / IC50 of test peptide) (HLA-A*0101): 0.043 relative binding ratio

GASCVTACPY [HER2/neu peptide, position 292, 10 amino acids, listing 2 of 2 here]
relative binding ratio (IC50 of standard peptide / IC50 of test peptide) (HLA-A*0101): 0.0012 relative binding ratio

MTFGAKPY [HER2/neu peptide, position 916, 8 amino acids]
relative binding ratio (IC50 of standard peptide / IC50 of test peptide) (HLA-A*0101): -0.0021 relative binding ratio

ETLEEITGY [HER2/neu peptide, position 401, 9 amino acids]
relative binding ratio (IC50 of standard peptide / IC50 of test peptide) (HLA-A*1101): 0.0002 relative binding ratio

DLTLGLEPSEEEAPR (also called Her2/neu.1058) [HER2/neu peptide DLTLGLEPSEEEAPR (position 1058)]
relative binding ratio (HLA-DR3 (DRB1*0301)): -0.0025 ratio to standard peptide

GSGAFGTVY [HER2/neu peptide, position 727, 9 amino acids]
relative binding ratio (IC50 of standard peptide / IC50 of test peptide) (HLA-A*0101): 0.0011 relative binding ratio

SPGGLREL [Her2/neu.133 (8-mer)]
IC50 (HLA-B*0702 [1]): 100 nM

NQEVTAEDGTQRCEK (also called Her2/neu.319) [HER2/neu peptide NQEVTAEDGTQRCEK (position 319)]
relative binding ratio (HLA-DR3 (DRB1*0301)): -0.0027 ratio to standard peptide

GAGGMVHHR [HER2/neu peptide, position 1038, 9 amino acids]
relative binding ratio (IC50 of standard peptide / IC50 of test peptide) (HLA-A*1101): 0.0043 relative binding ratio

IWKFPDEEGACQPCP (also called Her2/neu.613) [HER2/neu peptide IWKFPDEEGACQPCP (position 613)]
relative binding ratio (HLA-DR3 (DRB1*0301)): -0.0027 ratio to standard peptide

GILIKRRQQK [HER2/neu peptide, position 672, 10 amino acids]
relative binding ratio (IC50 of standard peptide / IC50 of test peptide) (HLA-A*1101): 0.0014 relative binding ratio

LMTFGAKPY [HER2/neu peptide, position 915, 9 amino acids]
relative binding ratio (IC50 of standard peptide / IC50 of test peptide) (HLA-A*0101): 0.0011 relative binding ratio

HQSDVWSY [HER2/neu peptide, position 901, 8 amino acids]
relative binding ratio (IC50 of standard peptide / IC50 of test peptide) (HLA-A*0101): -0.0021 relative binding ratio

AIKVLRENTSPKANK (also called Her2/neu.751) [HER2/neu peptide AIKVLRENTSPKANK (position 751)]
relative binding ratio (HLA-DR3 (DRB1*0301)): 0.0075 ratio to standard peptide

SMPNPEGRY [HER2/neu peptide, position 281, 9 amino acids]
relative binding ratio (IC50 of standard peptide / IC50 of test peptide) (HLA-A*0101): 0.0028 relative binding ratio

QIAKGMSY [HER2/neu peptide, position 828, 8 amino acids]
relative binding ratio (IC50 of standard peptide / IC50 of test peptide) (HLA-A*0101): -0.0021 relative binding ratio

NKEILDEAY [HER2/neu peptide, position 764, 9 amino acids]
relative binding ratio (IC50 of standard peptide / IC50 of test peptide) (HLA-A*0101): 0.0017 relative binding ratio
